Where two headings read alike, the source gives them in different places.
Experiments:
Test in all cases: SEC-MALS
[1] = molecular target: λ Ea22(102–182) (bacteriophage λ)
[2] = molecular target: φP27 Ea22(1–315) (bacteriophage φP27)
[3] = molecular target: φ24B Ea22(135–261) (bacteriophage φ24B)
[4] = molecular target: φ24B Ea22(135–261) (bacteriophage φ24B); remark: listed apart in the source
[5] = molecular target: λ Ea22(109–182) (bacteriophage λ)
[6] = molecular target: λ Ea22(1–182) (bacteriophage λ)
[7] = molecular target: λ Ea22(93–182) (bacteriophage λ)

λ Ea22(102–182) (domain or fragment)
stoichiometry N [1]: 2

φP27 Ea22(1–315) (natural protein)
stoichiometry N [2]: 4

φ24B Ea22(135–261) (domain or fragment)
stoichiometry N [3]: 2
stoichiometry N [4]: 4

λ Ea22(109–182) (domain or fragment)
stoichiometry N [5]: 2

λ Ea22(1–182) (natural protein)
stoichiometry N [6]: 4

λ Ea22(93–182) (domain or fragment)
stoichiometry N [7]: 2

Reference: publication PMC7271347
